Laboratory results reported in the nanobody polyreactivity screen of Harvey et al. (2022).

Assay: yeast display, Sf9 membrane polyspecificity reagent, FACS + sequencing; frameworks hold sequencing errors
Procedure, shortened: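 A synthetic nanobody library was expressed on Saccharomyces cerevisiae BJ5465 by galactose induction for 36–48 hours. The library was stained for 1 hour at 4 °C with 10% biotinylated, detergent-solubilized Sf9 membrane reagent and enriched with streptavidin microbeads before FACS. Low and high (top ~1%) gates were set on anti-HA fluorescence for expression and streptavidin fluorescence for reagent binding, and each polyreactivity label reflects the gate of origin.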

Question: With “QVLLVESGGGLVQAGGSLRLSCAASGFIFDVYAMGWYRQAPGKERELVAAISSSGGRKYYADSVKGRFTISRDNAKNTVYLQMNSLKPEDTAVYYCAAKTHSRTKVYTADYWGQGTQVTVSS” as the sequence, how does the “polyreactivity (PSR sort gate)” value read?
Answer: high polyreactivity

Question: With “QVQLVESGGGLVQAGGSLRLSCAASGFIFYYNTMGWYRQATGKESELVDSITWSGDTTYYADSVKGRFTISRDNAKKTVYLQMNSLKPEDTAVYYCAAVHYYPYRRYDYWGQGTQVTVSS” as the sequence, how does the “polyreactivity (PSR sort gate)” value read?
Answer: low polyreactivity

Question: Which “polyreactivity (PSR sort gate)” value does the source give for “QVQLVESGGGLVQAGGSLRLSCAASGRIFRYYAMGWYRQAPGKERELVATISRSGGSTFYADSVKGRFTISRDNAKNTVYLQMKSLKPEDTAVYYCAADYYSYVVGRIYYWGQGTQVTVSS” here?
Answer: high polyreactivity

Question: Which “polyreactivity (PSR sort gate)” value does the source give for “QVQHVDSGGGLVQAGGSLRLSFAASGFRFGINAMGWYRPAPGKERELVAAISKRTGSTYYADSVKGRFTSSRDNAKNTVYLQMNSLKPEDTAVYYCNKRVFPGYRLGGFWGQGTQVTVSS” here?
Answer: high polyreactivity

Question: For “QVQLVESGGGLVQAGGSLRLSCAASGYTFYVYAMGWYRQAPGTERELVADISTSDGSTYYADSVKGRFTISRDNAKNTVYLQMNSLKPEDTAVYYCNTDGSHGLYDWFWPANNDYWGQGTQVTVSS”, which “polyreactivity (PSR sort gate)” value is on record?
Answer: low polyreactivity

Question: For “QVQLVESGGVLVQAGGSLRLSCAASGTFYPNARGWYRQAPGKDRELVAALSEDGGGTYYADSVKGRFTISRDNAKNTVYLQMNSLKPEDTAVYYCAAEYYDYWYTFDYWGQGTQVTVSS”, which “polyreactivity (PSR sort gate)” value is on record?
Answer: high polyreactivity

Question: For “QVQLVESGGGLVQAGGSLRLSCAASGFIFHLYGMGWYRQAPGKERELVAAISSGGRTYYADSVKGRFTISRDNAKNTVYLQMNSLKPEDTAVYYCAVYVAYLYSYYYWGQGTQVTVSS”, which “polyreactivity (PSR sort gate)” value is on record?
Answer: low polyreactivity

Question: For “QVQLVESGGGLVQAGGSLRLSCAASGIIFWSYTMGWYRQAPGKEREFVASLRKSGGSTYYADSVKGRFTISRDNSKNTVYLQMNSLKPEDTAVYYCAAVYRRYLGGGYDYWGQGTQVTVSS”, which “polyreactivity (PSR sort gate)” value is on record?
Answer: high polyreactivity

Question: Which “polyreactivity (PSR sort gate)” value does the source give for “QVQLVESGGGLVQAGGSLRLSCAASGSIFVFYAMGWYRQAPGKERELVAAIDVSDGSTYYADSVKGRFTISRDNAKNTVYLQMNSLKPEDTAVYYCATYVVTYYWWYTYDYWGQGTQVTVSS” here?
Answer: low polyreactivity

Question: Which “polyreactivity (PSR sort gate)” value does the source give for “QVQLVESGGGLVQAGGSILLSCAASGFIFLYYAMGWYRQAPGKERELVADISRGADTKYADTVKGRFTISRDNAKNTVYLQMNSLKPEDTAVYYCATVITTFWFPYPGVELGYWGQGTQVNVSS” here?
Answer: low polyreactivity

Question: Which “polyreactivity (PSR sort gate)” value does the source give for “QVQLVESGGGLVQAGGSLRLSCAASGSTFDIYAMGWYRQAPGKERELVAVISGGDGSTYYADSVKGRFTISRDNAKNTVYLQMNSLKPEDTAVYYCAADYISPGYCDGEYDCWGQGTQVTVSS” here?
Answer: low polyreactivity

Question: With “QLQLEESRGGLVQAGGSLRLSCAASGGTCFSYAMGCYRQAPGKERELVAGIRNGGSTKYADSVKGRFTISRDNAKNTVYLQMNSLNPEDTAVYYCAARYYRPYTSSWAHNYRLDYCGQGTQVTVSS” as the sequence, how does the “polyreactivity (PSR sort gate)” value read?
Answer: high polyreactivity

Question: With “QVQLVESGGGLLLAGGSLRLSCAASGNIFRANTRGWYRQAPGKERELVASIRRSGGSTYYADSVKGRFTISRDNAKNTVYLQMNSLKPEDTAVYYCAAKSRPPYTDNYYWGQGTQVTVSS” as the sequence, how does the “polyreactivity (PSR sort gate)” value read?
Answer: high polyreactivity

Question: Which “polyreactivity (PSR sort gate)” value does the source give for “QVQLVESGGGLVQAGGSLRLSCAASGLTFYYNAMGWYRQAPGKERELVAAITWSTDSTYYADSVKGRFTISRDNAKNTVYLQMNSLKPEDTAVYYCAAAVDAFTNKQYYYWGQGTQVTVSS” here?
Answer: low polyreactivity

Question: For “QVQLVESGGGLVQAGGSLRLSCAASGFTFYYNARGWYRQAPGKERELVASITRSGGRTYYADSVKGRFTISRDNAKNTVYLQMNSLKPEDTAVYYCAAANHKGSRMDYWGQGTQVTVSS”, which “polyreactivity (PSR sort gate)” value is on record?
Answer: high polyreactivity

Question: For “QVQLVESGGGLVQAGGSLRLTCAASGFTFGTYAMGWYRQAPGKERELVAAITWSGGSTYYADSVKGRFTISRDNAKNTVYLQMNSLKPEDTAVYYCAAESADYNDGDYWGQGTQVTVSS”, which “polyreactivity (PSR sort gate)” value is on record?
Answer: low polyreactivity

Question: With “QVQLVESGGGLVQAGGSLRLSCAASGSISGYNAMGWYRQAPGKERELVAAISWAGGITRYADSVKGRFTISRDNAKNPVYLQMNSLKPEDTAVYYCAADQTYERHWVYYWGQGTQVTVSS” as the sequence, how does the “polyreactivity (PSR sort gate)” value read?
Answer: low polyreactivity

Question: For “QVQLVESGRGLVQAGGSLRLSCASSGTILERYVMGWYRQAPGKERELVAAITISRGSTYYADSVKGRFTISRDNAKNTVYLEMTRLKPEDTAVYYCAARNRYWGQGTKVTVSS”, which “polyreactivity (PSR sort gate)” value is on record?
Answer: high polyreactivity

Question: Which “polyreactivity (PSR sort gate)” value does the source give for “QVQLVESGVCLVQAGGSLRLSCAASGRIFYYYTMGWYRQAPGKERELVAAITSGGSTYYADSVKGSFTISRDNAKNTVYLQMNSLKPEDTAVYYCNAEFDDKYDYWGQGTQVTVSS” here?
Answer: low polyreactivity

Question: For “QVQLVESGGGLVQAGGSLRLSCAASGNTFVTYTMGWYRQAPGKERELVADISSGGSTYYADSVKGRFTISRDNAKNTVYLQINSLKPEDTAVYYCAVQQAVFRSYYIYHRYYWGQGTQVTVSS”, which “polyreactivity (PSR sort gate)” value is on record?
Answer: high polyreactivity

Question: With “QVQLVESGGGLVQAGGSLRLSCAASGSIFFRNAMGWYRQAPGKERELVAAITWNGGSTYYADSVKGRFTISRDNAKNTVYLQMNSLKPEDTAVYYCNKYYYYRDSGYWGQGTQVTVSS” as the sequence, how does the “polyreactivity (PSR sort gate)” value read?
Answer: high polyreactivity

Question: With “QVQLVESGGGLVQAGGSLRLSCAASGSIFVLYAMGWYRQAPGKEREFVAAISRSGGSTYYADSVKGRFTISRDNAKNTVYLQMNSLKPEDTAVYYCAASSRLNRWNYYAFDYWGQGTQVTVSS” as the sequence, how does the “polyreactivity (PSR sort gate)” value read?
Answer: high polyreactivity

Question: Which “polyreactivity (PSR sort gate)” value does the source give for “QVQLVESGGGLVQAGGSLRLSCAASGRTFWRNAMGWYRQAPGKERELVAAISSSGDRTYYADSVKGRFTISRDNANNTVYLQMNSLKPEDTAVYYCAADVRYSSRFYYWGQGTQVTVSS” here?
Answer: high polyreactivity

Question: For “QVQLVESGGGLVQAGGSLRLSCAASGYIFADNDMGWYRQAPGKERELVASIDWSGGSTYYADSVKGRFTISRDNAKNTVYLQMNSLKPEDTAVYYCNKGAFGGVSSYIYWAFYSGYDYWGLGTQVTVSS”, which “polyreactivity (PSR sort gate)” value is on record?
Answer: low polyreactivity

Question: With “QVQLVESGGGLVQAGGSLRLSCAASGSIIFVNAMGWYRQAPGKERELVADISSGGSTNYADSVKGRFTISRDNAKNTVYLLMNSLKPEDTAVYYCNTDEPPIYERFPYDYWGQGTQVNVSS” as the sequence, how does the “polyreactivity (PSR sort gate)” value read?
Answer: low polyreactivity

Question: Which “polyreactivity (PSR sort gate)” value does the source give for “QVQLVESGGGLVQAGGSLRLSCAASGRIFAYYAMGWYRQAPGKERELVAAITWRGGRTYYADSVKGRFTISRDNAKTTVYLQMNSLKPEDTAVYYCAARGYYSTYKLATDDYWGQGTQVTVSS” here?
Answer: high polyreactivity

Question: Which “polyreactivity (PSR sort gate)” value does the source give for “QVQLVESGGGLVQAGGSLRLICAASGRTFSSYAMGWYRQAPGKERELVAALSRRGGSTYYADSVKGRFTISRDNAKNTVYLQMNSLNPEDTAVYYCAADVYKQYGYYYWGQGTQVTVSS” here?
Answer: high polyreactivity

Question: For “QVQLVESGGGLVQAGGSLRLSCAASGIIFNTYAMGWYRQAPGKERELVAAIDSRDASTYADSVKGRYTISRDNAKNTVYLQMNSLIPEDTAVYYCAATHNVDLISEVYYWGQGTQVTVSS”, which “polyreactivity (PSR sort gate)” value is on record?
Answer: low polyreactivity

Question: With “QVQLLESGGGLVQAGGSLRLSCAASGSIFGLYAMGWYRQAPGKERELVAAISPRGGSTYYADSVKGRFTISRDNAKNTVYLQMNSLKPEDTAVYYCNRDYIRYALGHDYWGQGTQVTVSS” as the sequence, how does the “polyreactivity (PSR sort gate)” value read?
Answer: high polyreactivity

Question: Which “polyreactivity (PSR sort gate)” value does the source give for “QVQLVESGGGLVQAGGSLRLSCAASGRTFGIKAMGWYRQAPGKERELVATITTGTSTNYAVSVKGRFTISRDNAKNTVYLQMNSLKPEDTAVYYCAARDWYGWEFDYWGQGTQVTVSA” here?
Answer: low polyreactivity

Question: Which “polyreactivity (PSR sort gate)” value does the source give for “QVQLVESGGGLVQAGGSLRLSCAASGRISLYYTMGWYRQAPGKEREFVAAISSTGGSTYYADSVKGRFTISRDNAKNTVYLQMNSLKPEDTAVYYCAKAYHATSDYWGQGTQVTVSS” here?
Answer: low polyreactivity

Question: For “QVQLVESGGGLVQAGGSLRLSCAASGRSFYTNAMGWYRPAPGKERELLAAIRRSGTSTYYADSVKGRFTISRDNAYNTVYLQMNSLKPEDTAVYYCAALRSLLYRTYGYWGLGTQVTVSS”, which “polyreactivity (PSR sort gate)” value is on record?
Answer: low polyreactivity

Question: With “QVQLVESGGALVQAGGSLRLSCAASGIIFTPYAMGWYRQAPGKERQLLAAISWSGGRTYYADSVKGRFTISRDNAKNTVYLQMNSLKPEATAVYYCNARRYWWPHYYEYDYWGQGTHVTVSS” as the sequence, how does the “polyreactivity (PSR sort gate)” value read?
Answer: high polyreactivity

Question: With “QVQLVESGGGLVQAGGSLRLSCSASGSIFSGNTMGWYRQAPGKERELVAAISGGGSTNYADSVKGRFTISRDNAKNTVYLQMNSLKPEDTAVYYCAKDLSLGASRMDYWGQGTQVTVSS” as the sequence, how does the “polyreactivity (PSR sort gate)” value read?
Answer: low polyreactivity

Question: With “QVQLVESGGGLVQAGGSLRLSCAASGFTFLVNTMGWYRQAPGKERELVAATITSTGASTYYADSVKGRFTISRDNAKNTVYLQMNSLKPEDTAVYYCAVDPGGGNYIYYYNEYDYWGQGTQVTVSS” as the sequence, how does the “polyreactivity (PSR sort gate)” value read?
Answer: low polyreactivity

Question: With “QVHLVESGGGLVQAGGSLRLSCAASGSIFGPNAMGWYRPAPGKERELVAAINGGTGTFYADSVKGRFTISRDNAKHTVYLQMNSLKPEDTAVYYCAADYGTHYFVRYYYWGQGTEVTVSS” as the sequence, how does the “polyreactivity (PSR sort gate)” value read?
Answer: high polyreactivity

Question: Which “polyreactivity (PSR sort gate)” value does the source give for “QVQLVESGGGLVQAGGSLRISCAASGSIFARYAMGWYRQAPGKERELVAAISKRGGSTYYADSVKGRFTISRDNAKNTVYLQMNSLKPEDTAVYYCAAVSYPPYTTKMDYWGQGTLVTVSS” here?
Answer: high polyreactivity

Question: For “QVQLEESGGGLFQAGGSLRLSCAASVSSYRSYARGWYRTATGKERELVAAISVSGGSTYYADSVKGRFTISRDNAKNTVFLQMNSLKPEDTAVYYCAASYVPSYAPGRYYYWGQGTQVTVSS”, which “polyreactivity (PSR sort gate)” value is on record?
Answer: high polyreactivity

Question: Which “polyreactivity (PSR sort gate)” value does the source give for “QVQLVESGGGLVQAGGSLRLSCAASGSTFDSNTMGWYRQAPGKERELVAAITVSGGSTHYADSVKGRFTNSRYNAKNTVYLQMNSLKPEDTAVYYCNRRSYGYGAFSGYDYWGQGTQVTVSS” here?
Answer: low polyreactivity

Question: Which “polyreactivity (PSR sort gate)” value does the source give for “QVQLVESGGGLVQAGGSLRLSCAASGFIFGRYTMGWYRQAPGKERELVAAITYSGNTYYADSVKGRFTISRDKAKTTVYVQMNSLKPEDTALYYCNAYGANFRAFRNAYKYWGQGTQVTVSS” here?
Answer: high polyreactivity

Question: Which “polyreactivity (PSR sort gate)” value does the source give for “QVQLVESGGGLVQAGGSLRLSCAASGFTFSSYARGWYRQAPGKEREFVAAIRFSGGSTYYADSVKGRFTISRDNAMNTVYLQMNSLKPVDTAVYYCAKRWGIWPRGYYWGQGTQVSVSS” here?
Answer: low polyreactivity
